Experimental findings from a protein production outcome set (Wang et al. 2014) are described below.

The nature of this series: label from the status in PepcDB records.
Turning to “MAKFIMVVGTSSNSGKTVLVSGICRMLSNKGYKVAPFKSQNMSLNSRVSVEDGEIAVAQYTQAMAARAEPSVHFNPILLKPKGNFVSQVIVHGNPYEDKDYNEYRSKKDDFLVKIKESIDYLDKNYDYVVIEGAGSCCEINLLNDDIANLKVAEIAGADAILVSDIDRGGVFASIYGTVQLLPENWKKLLKGFVINKFRGNIDVLKDGFEKIEELTNIPVIGTIPYDETLVLPEEDSQALDGKRVFGNLKSPIEVNVVKFSKIANFTDVDPFSSDCLMKYIDFNENITGDILILPGTRCSTVEMDLMKKYGMDKKILEFVENGGIVLGICGGYQALGKMLFDEDFSEGDVGTISGLGLFDMETTFGNKKAIKNSTGKISIFNQNFDVSGYELHEGYSVSNETPLISLSKGFGNCGDSYDGSFKMIGDSYIFGTYFHGILENFEFRNYLVNLARSKKNLSKIEDDTYAELFNENMDKLSKIIEENLDFSKIIG”, the protein production result was “failed”.
As for “MAIIASNNSWDLYQLAVVILNYRTPQLVVDCLASLVSQIDPQTQQVIVVDNASGDDSVEEIEKAIANNNWQDWVRLLPSDVNGGFSAGNNLGIQAIRAENYLLLNSDTIVRPGAIQTLLVALEQYPEAGLFSPRLEWPDGTPQISCFRDHSPLSEMIDGARTSVITKLLQPFDVPIPVTEQSFEPQWTSFACVLIRRSVVEQIGLMDDGYFMYYDDIDYCRRARQAAWKIRYIPQASVVHLRGGSGSVKSDVASRKRPRPYLYASRSRYFAKFYGPLGLALANLGWLGGWGIAALREILGQKEPHTCDRQWQDIWFQWRQPLKPYRPELEHHHHHH”, the protein production entry is on record as “not failed”.
Take “MKQILTYLLFIWILLPLKAEEKIYTVDNIPKVHLQNKMQYVCNPAGILSQQACDEIDAMLYALEQQTGIETVVAIVPSIGDKDCFEFSHQLLNQWGVGKKGKDNGLVILLVTDQRCIQFYTGYGLEGILPDAICKRIQMQEMIPYLKKGEWNQGMLAGVKAVCQRLDGSMVNDDEGRGEEGISVSMLLVVILGFITIAGVVGTLAVRASTRCPKCGKHQLQRSSTKLISNRNGVKTEDIIYTCRNCGHTVVRRQQSYDDNYRGRGGGGPFIGGFGGGSFGSGGGGGFSGGSFGGGSGGGGGAGSRFLEHHHHHH”: the protein production result is recorded as “failed”.
The result for “MYGISVFLGEEITNDTIIYIKKMKALGFDGIFTSLHIPEDDTSLYRQRLTDLGAIAKAEKMKIMVDISGEALKRAGFSFDELEPLIELGVTGLRMDYGITIEQMAHASHKIDIGLNASTITLEEVAELKAHQADFSRLEAWHNYYPRPETGIGTTFFNEKNRWLKELGLQVFTFVPGDGQTRGPIFAGLPTLEKHRGQNPFAAAVGLMADPYVDAVYIGDPTISERTMAQFGYYHQTNQFLLEVAPSESRYLKRILGTHTNRLDAARDVLRSELSRTSEMFRKDEIATIESEQTEARPVGTVTIDNEKYGRYMGEIQVTLVDLPKDEKVNTITRIIEKDQTILPLIKAGNQFTLVTEGTIENEFRKLNN” reads “not failed”.
As to “MERKKITFDSFIRGSICCALIVGLLILFKRLSGVLLPFFVAWLIAYMIYPLVKFFQYKLRFKSRIISIFCALFSITIVGISLFYLLVPPMLAEMGRMNDLLVTYLTNGAYSSGTVPPTLSEFIHKHIDLQALNRILSEENIMNTIKETVPKLWALVAESINILFSVFASFIILLYVVFILLDYESIAEGWLHLLPGKYRTFASNLVNDIQDGMNRYFRGQAFVAFCVGILFSIGFLIIDFPMAIALGLFIGALNMVPYLQIIGFLPTIVLAILKAADTGENFWVILAGALIVFIVVQAIQDGFLVPRIMGKITGLNPAIILLSLSIWGSLLGMLGMIIALPLTTLMLSYYQRFIINKEKIKYDRHEVTDNQSAEENTKK”, the protein production entry was “failed”.
Regarding “MNTILSTLFIVLAAWFVISRFLPVKGVQNINGKELKSIVGKQGKYFIDVRTVGEYRGNHMKGFQNIPLNDLASKTNQLDKNREVIVICQSGMRSKQAAKMLKKLGFQHVINVSGGMNGL”, the protein production entry is on record as “failed”.
The result for “KRSHLENALNYALENSETAYNEMFLECDKQFILESWLNDFDLTKDYNETMHLVFSIKDKPDEETMQGLLHSTWESLKIRLPEYKFALVPHAHQDHAHIHCFINKTNQLTRRRLRFKGHEDCKEFFNELRSEFAYRLNDHLLSEEYLYVNEPKLKELDNIKQQLQDLEKEEKALEQIKSPQDEWDLNKALQSEYLQELKYKNKAKALDIQNNHSTPLKQKISEFKIALFNHKDTSDDEKEQLDIDRIDKRKPVSEHLKNTNKHELYELLGFYQKELDKKQNHSAFKNFAILNGLDRDFERETNGYSVLKKKEMLLNKLEHLDKRLLDKNSHLLLAQ” reads “failed”; that for “MSMVVDSVPDSSTFVGKTIRPVAAVSIHGIVFDGERLLAVDSKNGYLLEIDPYTNNTKLLNGQYWQEFIGATGLAIADRQLWFSSGQYVYTCNLEGPDLKPEVFAWFDDPVNGVAIWESTVYITCHKRGHIWVYGRDTRKLVATFYSPGIGVENITVRGEELWVCDSAEQSVYCLDRATGEINFSLITPFESPTGLAFYDDQAVGKATLYVAYVQQEPYVRDNPNADPNHELMYRETTFIHPLYFYNDPHQCCAFSNGYLVEMRYVEELAPLDPVDLKQVEWRMALPAVTPRQRIRKIESVGLPFSRIDDVNGQKVAVFEFDQLDLDSRAVFGWRVEMEVWGIKYRLKPSDCEHLPALPEGFADRYLVDNDNLSMETDIIIRAAAEAIGRETNLLRQMFNIRNYVYDRLSYGIKPHIDTPDLALRRGVGSCGEYVGVLLALARLNGIACRTAGRYKCPPHPLQRNLPMEPDFNHVWFEFYLPGIGWLPMESNPDDTNDGGPYPTRFFMGLAWYHAETAKDVPFEQLLSQGIPVNKQVVSIGELAINHVQFTILEELDPAAHLAHLEHHHHHH”, “not failed”; that for “YKGKNLIMIQVEALQQFVINSKVENQEITPNLNRWINKSLYFNNFFYQVSSGNTSDAEFLANNSFYPAASGAAYYLYAGNTYSSLAKEMNDNNYYTAVLHGYKEGFWNRNVMYKAEKFKDFFGEKSFNINENVGLGLSDKSFLNQSFNKLKSFSSPYYSFIITLSSHYPYDDTKGYGDFNVGDYEGTLLGNYLKGIHYTDAQLGTFLDKLEKSGIMDNSVVILYGDHYAIPKDKINDLYDFENIKNPTDLDWYELQKVPMLIHFPKDQYKGINSEYSGQIDLYPTIANMFNLPQNYMLGTDLFASKNRNVIFRNGSFTDGNVFYVSWTNTYYDIKTGS”, “failed”.
Consider “MRLYVMLLSLSLIWGFSFVFIEHLLGIVGVWGTVVVRCFAGAIILLPILLMRRKLFYRPAPWKALMIVGIFNAGLPWGLIALSQTEIYSSTAAVLNALTPLFTGLIGFLLYSNALSRQQWGGIVLGFSGVVVLTGFQLQLLAPEHFVGVGTMILATICYGFASQYVKRHLHDTDVVLITTFSLLFGGLVGLIGMWITDSLHVVRVPLTIDWLSLISIIGLGCLGSGMAHLLYYDLMKKGGPEFATTVTYLIPMTAIIWGKLFLDELITKNIVIGMLMILMGVYFTSRKRNVCSKANEDSNKGELA”, for which the protein production entry is given as “failed”.
For “MKMISTIQKKETVMVAPIPAKRGRKPAVATAPATGQVQSLTRGLKLLEWIAESNGSVALTELAQQAGLPNSTTHRLLTTMQQQGFVRQVGELGHWAIGAHAFMVGSSFLQSRNLLAIVHPILRNLMEESGETVNMAVLDQSDHEAIIIDQVQCTHLMRMSAPIGGKLPMHASGAGKAFLAQLSEEQVTKLLHRKGLHAYTHATLVSPVHLKEDLAQTRKRGYSFDDEEHALGLRCLAACIFDEHREPFAAISISGPISRITDDRVTEFGAMVIKAAKEVTLAYGGMR”, the protein production entry is reported as “not failed”.
For the sequence “MSLAQADGIAFRELSFPEALKRAEVEDKLLFVDCFTTWCGPCKRLSKVVFKDSLVADYFNRHFVNLKMDMEKGEGVELRKKYGVHAYPTLLFINSSGEVVYRLVGAEDAPELLKKVKLGVESEGHHHHHH”, the protein production result is listed as “not failed”.
For “LTSSNALRGDAHSRLAAHRGLLERTSRTTRVAGILRDAIIDGTFRPGARLSEPDICAALDVSRNTVREAFQILIEDRLVAHELNRGVFVRVPTAEDITELYICRRVVECAGVNGFDPATGDLSRVAEALDLADERYAVEDWTGVGTADIHFHSALASLNNSNRIDELMRSVWNEARLVFHVMDDAHRFHGPYLTRNHEIYDALAAGNTEAAGQLLKTYLEDAEAQILGAYRPVSG”, the protein production entry was “not failed”.
On to “MTQHPFISRVAVRNYKSIGYCDVNLRPLTYLVGHNGAGKSNFMDALHFVCDALSYSLDSALNERGGINEVRRRSGGHPTHFALRVEFVMQSGQAGRYGFVIGALKNGGYEVQREECVVAGIGKGPFFRIEKGKLRDSSETTFPSVTADRLALVAASGLTAFRPVFDALTAMGFYNLNPKLMRELQKPQDGRLLRPAGENIASVIGHLEKVAPAQMALIQEYLHSVAPMVHGVERKPIGPMETLEFRQDMAGSKHPWRFLAQNMSDGTLRALGVLSALLQGNVDYSPTLIGIEEPETALHPAASAALREALVRASETTQVLVTSHSPDLLDDHSIDADAVLAVVSEAGETKVAPLDEGSRQVMRDHLFSAGELLRMNQLAPDRASLEQQDKAASGDLFGETESVLEHHHHHH”, for which the protein production entry is listed as “not failed”.
With “MSCGKPQETYSTSSILTREQFEIQHQEEDTIGEQVIFIDGVAYNSRGFRVCGAPNQRGGFCARFGQCPFHKDKVTTFKMSEETVSEFPRQLLTESCNLLQNNERKFKNAWKLDEHHRFLVALKKFGHGNWRQIADYVETRSASQCQSHAQKYYLRKRKLASNANLKRSIFDLIDEDTLSVEIGEEDTWNIIQKCPSKEAQGSVRSRSKTLQRMSTDSSVESYPIRELSTVDSELSTLQTYKQASFFIRIFRNGVFSHGVDLELPNSLASFFIKAAQLLDMSVATKAYTRSGFEISSLHEVCPGDILWISSGEEFIFPSPVQYIET”, the protein production result is listed as “not failed”.
As to “MRIQIQKLSYRDIDSFIELLDVFEEVFEMKNFEMPSVEHLEELLGKDDFFVFVARSEGTIVGGLTAYSLTQYFSKSPLLYIYDVAVMKRHQRKGIGKKLIMGIKDYCKDSDIGEIIVQADEADEHAIEFYQSTGAKAAKVVQFYYALNG”, the protein production result was “failed”.
The result for “PPQAMNALMRLNQLKPGLQYKLVSQTGPVHAPIFTMSVEVDGNSFEASGPSKKTAKLHVAVKVLQDMGLPTGAEGRDSSKGEDS” reads “failed”; that for “FFTPPHIVQLCVRLVDDFADGMTFHDPTVGSGGMLTEAAKYYREAQGGDPSKLTFTGQEINPDIAAIARMNLSLHTLNGEIERGDSLASPGFTDGDDLERFDRVLANFPFSADWAKDDLQDDQYGRFDWHTKLPRADRGDYAFIMHIAEQLKEPDCGDESGGKAAIVIPHGVLFRKHEQRYRQPMLENDLVEAIVGLPENLFQNNSIPSAILVLNTDKPADREGEVQFIHAADEAFYEELSNQNELTDDGLDHIVENFDDWTTE”, “failed”; that for “MTLAPPPMPPSDAPAAESAGATLRLVIADALVVILTFIVMFLGVGQLSAEAGLSAVQTAVMTLLTVAAPAQAAAMQIMTSDGATSGVWVAAMVAVIIVNLRFMVMVASILGRLPQAGFLRGTAAVGLVSASSFAIILPRLMSAPPARPLLYCALVGVSCSISAVIGALLGHQLAASVPALVGAALGAMIPIYFATLIARQGKHKALIANALAGAVLVPLAAPLLGSLSLLIVPLGISALSLMIGKGTPANG”, “failed”.
In the case of “MSELILVRHGQATPFEKATDRLSALGEQQARAVGAALTAQGVRPTHVLHGSLVRQRRTAELAGEGQTGNEPGWPAPTLDPRLSEFDGDGLVTTLAPLLAQQDAEFGTLATTFREHRDSPERNRHFQRMLEALAAAWQAGTVTHPEVEGWADFRARVRAGLGDVLRLPAGTTAVLFTSGGVIGLAVALALDAPDASALKLNWRVKNGSLTRFTFGGGRLSLDSFNEEGHLTPELRSWR”, the protein production result was “failed”.
